pKd: −log10 of the molar value.
Molecular target: Man5GlcNAc2-enriched CH505.M5.G458Y chimeric SOSIP gp140 Env trimer (HIV-1 (CH505 transmitted/founder virus) | HIV-1)
Experiment: BLI

Substance	pKd
CH235 UCA IgG (antibody)	8.35
CH235.12 Fab	9.70

Source: publication doi:10.1101/2023.03.05.531154
